{"source": "paper PMC13370731", "key": {"[1]": {"biological_target": "MtrR‐His6 (small protein MtrR with a C‐terminal His‐tag, heterologously expressed in Escherichia coli) (Methanosarcina mazei Gö1)", "test": "SEC; IMAC‐purified MtrR‐His6 on an Enrich SEC 70 column, detection at 214 nm, calibrated with a standard protein mixture; phosphate buffer (50 mM sodium phosphate, 300 mM NaCl, pH 8.0); peaks at 10 and 13 mL"}, "[2]": {"biological_target": "soluble domain of the MtrA subunit (M1 – S168), strep‐tagged, RED‐labeled (Methanosarcina mazei Gö1) (UniProt O59640)", "sequence (O59640 1-168)": "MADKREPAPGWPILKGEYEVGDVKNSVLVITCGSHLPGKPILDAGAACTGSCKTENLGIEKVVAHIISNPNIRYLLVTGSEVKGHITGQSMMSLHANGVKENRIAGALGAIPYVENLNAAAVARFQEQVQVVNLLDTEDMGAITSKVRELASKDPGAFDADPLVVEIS", "test": "MST; 20 nM RED‐labeled strep‐MtrA with MtrR‐His6 in 16 concentrations (calculated on monomeric molecular mass); standard capillaries, 100% excitation power, medium MST power; MO.AFFINITY analysis; two biological replicates"}}, "note": "Where “and” joins values, the source holds several entries; their conditions need not be identical. Equal entries are not always repeated.", "data": [{"substance": "MtrR‐His6 (small protein MtrR with a C‐terminal His‐tag, heterologously expressed in Escherichia coli) (natural protein)", "values": [{"measurement": "stoichiometry N", "setting": "[1]", "value": "2 and < 6"}, {"measurement": "Kd", "setting": "[2]", "value": 110, "unit": "nM"}]}]}
